Assay results as given in patent publication US6548743B1, “Transgenic plants expressing a dual-specificity MAPK phosphatase and uses thereof” (The General Hospital Corporation, priority 1998, dated 2003).

Columns and labels:
[1] = tested on: tobacco cells; experiment: Auxin effect on division and differentiation of transfected tobacco cells; assay type: cell-based
Experimental: To examine the effects of auxin on cell division and differentiation of cells expressing MKP-1 SEQ ID NO.:10; tobacco cells transfected with the MKP-1 transgene expressed under the control of the 35S CaMV promoter were cultured on a medium containing 0.1 μM or 1 μM NAA. […] Since prevention of MAPK activation by MKP-1 can render plant cells less sensitive to auxin, activation of some MAPK pathways may be crucial in auxin stimulated plant cell proliferation.

[2] = tested on: tobacco cultivar SR1; experiment: Phenotype of transgenic tobacco SR1 plants expressing the transgene (35S CaMV promoter); assay type: in vivo
Description: (§1) Next, we examined the phenotypic modifications of transgenic plants expressing MKP-1 under the control of the 35S CaMV promoter. For these experiments, we introduced the MKP-1 construct into tobacco cultivar SR1 and Arabidopsis plants according to standard Agrobacterium-mediated gene transfer methods. Initiation of flowering in the day-neutral tobacco cultivar SR1 is mainly dependent on the number of leaves found on the plants. These tobacco plants, in general, remain in the vegetative state until approximately twenty leaves have developed. […] Some transformants even initiated flowers after only a few small leaves had developed (FIG. 4). Despite early flowering, these plants were fertile. […] Similar results were obtained when MKP-1 was expressed in Arabidopsis plants.

[3] = tested on: NPK1-dependent activation of a MAPK and repression of the GH3 promoter; experiment: Transient expression in maize protoplasts: reversal of NPK1 effects; assay type: cell-based; conditions: transfected maize protoplasts, 35S CaMV promoter
Description: A phosphatase domain containing a fragment of the mouse MKP-1 (amino acids 1-314 (SEQ ID NO.: 11); Sun et al., Cell 75: 487-493, 1993) was cloned into the plant expression vector pART7. This expression plasmid was then used for transient expression of MKP-1 in maize protoplasts.

[4] = tested on: Arabidopsis plants; experiment: Phenotype of transgenic Arabidopsis plants expressing the transgene (35S CaMV promoter); assay type: in vivo
Description: as §1

B1: MKP-1: dual-specificity MAPK phosphatase; fragment of mouse MKP-1 (amino acids 1-314) expressed from a transgene under the 35S CaMV promoter (protein, UniProt P28563 1-314, looked up, fragment)
chain: MVMEVGILDAGGLRALLREGAAQCLLLDCRSFFAFNAGHIAGSVNVRFSTIVRRRAKGAMGLEHIVPNAELRGRLLAGAYHAVVLLDERSASLDGAKRDGTLALAAGALCREARSTQVFFLQGGYEAFSASCPELCSKQSTPTGLSLPLSTSVPDSAESGCSSCSTPLYDQGGPVEILSFLYLGSAYHASRKDMLDALGITALINVSANCPNHFEGHYQYKSIPVEDNHKADISSWFNEAIDFIDSIKDAGGRVFVHCQAGISRSATICLAYLMRTNRVKLDEAFEFVKQRRSIISPNFSFMGQLLQFESQVLA
Question: B1 was tested. Which “cell division under low auxin” value ([1]; 0.1 μM NAA) did it give?
Answer: failed to divide

Question: What about the “cell phenotype under high auxin” value ([1]; 1 μM NAA) of the same molecule?
Answer: remained green and formed tight calli with differentiated shoot primordia

Question: What about the “level of auxin required to initiate cell division” value ([1]; constant concentration of cytokinin, compared with cells transfected with vector alone) of the same molecule?
Answer: 1 μM NAA

Question: What about the “number of leaves before flowering compared to wild type” value ([2]; MKP-1 transformed SR1 tobacco, FIG. 2) of the same molecule?
Answer: about half

Question: What about the fertility ([2]; early flowering transformants) of the same molecule?
Answer: fertile

Question: And the “reduction in the vegetative life span of the plant” value ([2]; in vivo)?
Answer: ~50%

Question: What about the initiation of flowering ([2]; primary transgenic SR1 lines vs control plants) of the same molecule?
Answer: initiated flowering earlier than control plants

Question: What about the “flower and seed production” value ([2]; transgenic vs wild-type plants) of the same molecule?
Answer: more flowers and seeds than the wild-type plants

Question: And the “effect on NPK1-dependent activation of a MAPK” value [3]?
Answer: complete elimination

Question: What about the “effect on repression of the auxin-inducibility of the GH3 promoter by NPK1” value [3] of the same molecule?
Answer: complete elimination

Question: And the “fertility of reproductive organs” value ([4]; in vivo)?
Answer: fertile

Question: What about the inflorescence initiation ([4]; progenies of several Arabidopsis lines) of the same molecule?
Answer: initiate the inflorescence stem without producing any rosette leaves
